Measured values from patent publication US20220025003A1, “REAGENTS AND METHODS FOR CONTROLLING PROTEIN FUNCTION AND INTERACTION” (University of Washington, priority 2018, published 2022).
Residue numbers refer to the chain shown, from its start. Values joined by “and” are separate entries in the source; they are usually repeats but may differ in a detail not shown here. Identical values can stand only once.

B1: ANR—BFP-CAAX: plasma membrane-targeted ANR-BFP fusion (protein)
chain: MGELDELVYLLDGPGYDPIHSDGSGTGSGTGSGTGTTSGTGTGGSTGGELDELVYLLDGPGYDPIHSDGSGTGSGTGSGTGTTSGTGTGGSTGEQKLISEEDLGSGSSELIKENMHMKLYMEGTVDNHHFKCTSEGEGKPYEGTQTMRIKVVEGGPLPFAFDILATSFLYGSKTFINHTQGIPDFFKQSFPEGFTWERVTTYEDGGVLTATQDTSLQDGCLIYNVKIRGVNFTSNGPVMQKKTLGWEAFTETLYPADGGLEGRNDMALKLVGGSHLIANIKTTYRSKKPAKNLKMPGVYYVDYRLERIKEANNETYVEQHEVAVARYCDLPSKLGHKLNRKHKEKMSKDGKKKKKKSKTKCVIM
B2: DNCR2: danoprevir/NS3a complex reader, final variant with 14 mutations from D5, SEQ ID NO: 8 (protein)
chain: SSDEEEARELIERAKEAAERAQEAAERTGDPRVRELARELKRLAQEAAEEVKRDPSSSDVNEALKLIVEAIEAAVDALEAAERTGDPEVRELARELVRLAVEAAEEVQRNPSSSDVNEALHSIVYAIEAAIFALEAAERTGDPEVRELARELVRLAVEAAEEVQRNPSSRNVEHALMRIVLAIYLAEENLREAEESGDPEKREKARERVREAVERAEEVQRDPSGWLNH
B3: G3: computational design on DHR18 scaffold binding grazoprevir/NS3a complex, SEQ ID NO: 12 (protein)
chain: DIEKLCKKAEEEAKEAQEKADELRQRHPDSQAAEDAEDLANEAEAAVLAACSLAQEHPNADIAKLCIKAASEAAEAASKAAELAQRHPDSQAARDAIKLASQAARAVILAIMLAAENPNADIAKLCIKAASEAAEAASKAAELAQRHPDSQAARDAIKLASQAAEAVERAIWLAAENPNADIAKKCIKAASEAAEEASKAAEEAQRHPDSQKARDEIKEASQKAEEVKERCKS
B4: GNCR1: grazoprevir/NS3a complex reader 1, 4 mutations from G3, SEQ ID NO: 11 (protein)
chain: B3 chain with E42L, E44V, A49T, S52L
B5: D5: computational design on DHR79 scaffold binding danoprevir/NS3a complex, SEQ ID NO: 10 (protein)
chain: SSDEEEARELIERAKEAAERAQEAAERTGDPRVRELARELKRLAQEAAEEVKRDPSSSDVNEALKLIVEAIEAAVDALEAAERTGDPEVRELARELVRLAVEAAEEVQRNPSSSDVNEALLTIVIAIEAAVNALEAAERTGDPEVRELARELVRLAVEAAEEVQRNPSSREVNIALWKIVLAIQEAVESLREAEESGDPEKREKARERVREAVERAEEVQRDPSGWLNH
B6: DNCR1: danoprevir/NS3a complex reader 1, intermediate-affinity variant, SEQ ID NO: 9 (protein)
chain: B5 chain with T122S, N132H, N173E, I174H, W177M, Q184Y, V187E

Columns and labels:
NS3a in NIH3T3 cells [1] = assay: Confocal microscopy for colocalization analysis (fixed cells); assay type: cell-based; conditions: 5 μM drug, 15 min
[2] = test system: PI3K-Akt signaling in COS-7 cells; assay: AKT Western blots; assay type: cell-based; conditions: DNCR2 fused to inter-SH2 domain of p85, danoprevir
Protocol: COS-7 cells (ATCC), were plated in 24-well plates at 2×10^5 cells/mL (0.5 mL volume). […] One day after transfection, cells were washed once with DPBS, and media was replaced with serum-free DMEM. After serum-starving for 22 hours, cells were exposed to a 15-min drug treatment using 12, 3-fold dilutions of danoprevir from 5 μM to 0 μM, in triplicate. After drug treatment, cells were washed once in DPBS, then lysed in 50 μL modified RIPA buffer (50 mM Tris-HCl, pH 7.8, 1% v/v IGEPAL CA-630, 150 mM NaCl, 1 mM EDTA, 1× Pierce Protease Inhibitor Tablet) for 30 minutes on ice. Cell debris was cleared by centrifugation at […] for 10 min at 4° C. Lysate was mixed with protein loading dye and denatured at 95° C. for 7 minutes then run on an SDS-PAGE gel (Criterion, Bio-Rad) and transferred to nitrocellulose. Blocking and primary antibody incubations were done in a 1:1 mix of TBS plus 0.1% v/v Tween-20 (TBST) and blocking buffer (Odyssey). Primary antibodies used were pSER473 AKT (1:2000, Cell Signaling Technologies #4060), and pan-AKT (1:2000, Cell Signaling Technologies #2920). […]

NS3a/danoprevir complex = biological target: T1, NS3a/danoprevir complex (Hepatitis C virus genotype 1a, UniProt P27958, C1073S/C1078L/C1185S/I1043Q/I1044E/I1098T/L1039E/L1040E/L1047Q/L1179I/N1200S/P1112Q/Q1106K/T1100M/T1173A); assay: Yeast surface display binding and titration; parameters: key to relative binding: +: Relative binding of different NS3a/inhibitor complexes is given for conditions where binding was too weak to achieve full titration curves on yeast, indicating binding in the low-to-mid micromolar-range, or weaker.; ++: Relative binding of different NS3a/inhibitor complexes is given for conditions where binding was too weak to achieve full titration curves on yeast, indicating binding in the low-to-mid micromolar-range, or weaker.; +++: Relative binding of different NS3a/inhibitor complexes is given for conditions where binding was too weak to achieve full titration curves on yeast, indicating binding in the low-to-mid micromolar-range, or weaker; conditions: for Kd: apparent, read-out: KD (nM) ± standard deviation; for Kd / relative binding: yeast-displayed design, NS3a/danoprevir complex; for Fold drug specificity: grazoprevir/NS3a over danoprevir/NS3a; for binding to NS3a/danoprevir complex: yeast surface display
T1 construct: made in house; host or cells: E. coli BL21 (DE3), pDW363 with BirA
Excerpt: (§1) ; these sorts are denoted as “avid” below. […] See FIG. 30a for yeast gating strategies.
(§2) […]. Curves were fit using Graphpad Prism 5 to a one-site specific binding model with Hill coefficient.

NS3a/asunaprevir complex = biological target: T2, NS3a/asunaprevir complex (Hepatitis C virus genotype 1a, UniProt P27958, C1073S/C1078L/C1185S/I1043Q/I1044E/I1098T/L1039E/L1040E/L1047Q/L1179I/N1200S/P1112Q/Q1106K/T1100M/T1173A); assay: Yeast surface display binding and titration; parameters: key to relative binding: +: Relative binding of different NS3a/inhibitor complexes is given for conditions where binding was too weak to achieve full titration curves on yeast, indicating binding in the low-to-mid micromolar-range, or weaker.; ++: Relative binding of different NS3a/inhibitor complexes is given for conditions where binding was too weak to achieve full titration curves on yeast, indicating binding in the low-to-mid micromolar-range, or weaker.; +++: Relative binding of different NS3a/inhibitor complexes is given for conditions where binding was too weak to achieve full titration curves on yeast, indicating binding in the low-to-mid micromolar-range, or weaker; conditions: for Kd: apparent, read-out: KD (nM) ± standard deviation; for Kd / relative binding: yeast-displayed design, NS3a/asunaprevir complex
T2 construct: made in house; host or cells: E. coli BL21 (DE3), pDW363 with BirA
Excerpt: as §1, §2

NS3a/grazoprevir complex = biological target: T3, NS3a/grazoprevir complex (Hepatitis C virus genotype 1a, UniProt P27958, C1073S/C1078L/C1185S/I1043Q/I1044E/I1098T/L1039E/L1040E/L1047Q/L1179I/N1200S/P1112Q/Q1106K/T1100M/T1173A); assay: Yeast surface display binding and titration; parameters: key to relative binding: +: Relative binding of different NS3a/inhibitor complexes is given for conditions where binding was too weak to achieve full titration curves on yeast, indicating binding in the low-to-mid micromolar-range, or weaker.; ++: Relative binding of different NS3a/inhibitor complexes is given for conditions where binding was too weak to achieve full titration curves on yeast, indicating binding in the low-to-mid micromolar-range, or weaker.; +++: Relative binding of different NS3a/inhibitor complexes is given for conditions where binding was too weak to achieve full titration curves on yeast, indicating binding in the low-to-mid micromolar-range, or weaker; conditions: for Kd: apparent, read-out: KD (nM) ± standard deviation; for Kd / relative binding: yeast-displayed design, NS3a/grazoprevir complex; for Fold drug specificity: danoprevir/NS3a over grazoprevir/NS3a
T3 construct: made in house; host or cells: E. coli BL21 (DE3), pDW363 with BirA
Excerpt: as §1, §2

[3] = 100 μM free drug unable to disrupt DNCR2/danoprevir/NS3a complex on yeast
apo NS3a = biological target: T4, apo NS3a (Hepatitis C virus genotype 1a, UniProt P27958, C1073S/C1078L/C1185S/I1043Q/I1044E/I1098T/L1039E/L1040E/L1047Q/L1179I/N1200S/P1112Q/Q1106K/T1100M/T1173A); assay: Yeast surface display binding
T4 construct: made in house; host or cells: E. coli BL21 (DE3), pDW363 with BirA
Excerpt: as §1, §2

NS3a in NIH3T3 cells [4] = assay: Confocal microscopy for colocalization analysis (fixed cells); assay type: cell-based; conditions: 10 μM drug, 1 h
Protocol: A Leica SP8× system was used for confocal microscopy. […] TagBFP emission was recorded on a PMT detector, and EGFP and mCherry™ were detected by separate HyD™ detectors.
Colocalization experiments were performed in NIH3T3 cells (Flp-In-3T3, Thermo Fisher Scientific). For fixed-cell experiments, cells were plated at 3×10^4 cells/mL on sterile glass coverslides placed in 12-well culture plates. […] One day after transfection, cells were treated with drug or DMSO and fixed. Drug additions were performed by exchanging the media for DMEM+10% v/v FBS plus drug. To fix, cells were washed once with DPBS (Thermo Fisher Scientific), then incubated with 4% v/v paraformaldehyde in DPBS for 15 minutes. After washing twice with DPBS, coverslides with cells were removed from the plate and mounted on glass slides using Fluoromount-G (SouthernBiotech).
Colocalization of NS3a and DNCR1 at the plasma membrane, nucleus, mitochondria and Golgi was performed with two sets of constructs, with either NS3a or DNCR1 as the immobilized component. mCherry™-NS3a was used with Tom20-DNCR1-EGFP, DNCR1-EGFP-Giantin, and 3×NLS-DNCR1-EGFP. […] Colocalization was analyzed after 1 h of 10 μM drug or equal volume DMSO treatment.
All images were analyzed using ImageJ. […] EGFP fluorescence was quantified in the ROI over the timecourse. […] The cytoplasmic fluorescence was normalized to the value in the first and last frame for each cell. […]

[5] = danoprevir/NS3a over asunaprevir/NS3a
[6] = grazoprevir/NS3a over asunaprevir/NS3a

Molecule	Kd (NS3a/danoprevir complex) [nM]	Kd (NS3a/asunaprevir complex) [nM]	Fold drug specificity (NS3a/asunaprevir complex; [5])	Kd (NS3a/grazoprevir complex)	Fold drug specificity (NS3a/grazoprevir complex)	binding to apo NS3a (apo NS3a)	Fold drug specificity (NS3a/danoprevir complex)	relative binding (NS3a/danoprevir complex)	Fold drug specificity (NS3a/asunaprevir complex; [6])	relative binding (NS3a/asunaprevir complex)	specificity for binding grazoprevir/NS3a over NS3a with danoprevir or asunaprevir, or apo NS3a (NS3a/grazoprevir complex; yeast surface display)	relative binding (NS3a/grazoprevir complex)	binding to NS3a/danoprevir complex (NS3a/danoprevir complex)	further results
B1														Colocalization of NS3a-mCherry with ANR-BFP-CAAX or NLS-DNCR2-EGFP (NS3a in NIH3T3 cells [1]): pre-localized NS3a-mCherry™ to the plasma membrane
B2	0.036 ± 0.0002	770 ± 50	21,000 fold	2000 ± 100 nM	56,000 fold	no detectable binding								PI3K-Akt signaling activation [2]: capable of activating PI3K-Akt signaling; specificity over NS3a bound to the drugs grazoprevir or asunaprevir (NS3a/danoprevir complex): > 20,000 fold; binding to danoprevir alone [3]: does not appear to bind substantially to danoprevir alone
B3							high	no binding	modest	+	high specificity	++		binding to NS3a/grazoprevir complex (NS3a/grazoprevir complex; yeast surface display): modest, grazoprevir-dependent binding
B4	> 10000	> 10000		140 nM and < 200 nM		little-to-no affinity	>71 fold		>71 fold		high specificity		little-to-no affinity	binding to asunaprevir-bound NS3a (NS3a/asunaprevir complex; yeast surface display): little-to-no affinity
B5			modest		none			++		+		+++	modest, drug-dependent binding	
B6	190 ± 10	6300 ± 2600	33 fold	2900 ± 100 nM	15 fold								high nanomolar affinity	Colocalization of DNCR1-EGFP and NS3a-mCherry (NS3a in NIH3T3 cells [4]): functional binding specificity for the danoprevir/NS3a complex
